In paper PMC7351999, “Structure of the DOCK2−ELMO1 complex provides insights into regulation of the auto-inhibited state” (Nature Communications, 2020):

How the values were obtained:
[1] = biological target: T1, human RHOG (amino acids 1–179) (human, UniProt P84095 1-179); experiment: ITC; ELMO2^RBD injected into the cell containing GMPPNP-loaded (activated) RHOG; 20 mM Tris-HCl (pH 7.5), 100 mM NaCl, 1 mM DTT; 25 °C; conditions: both partners purified
T1 construct: RHOG, human, GeneID 391, amino acids 1–179; Loaded with GMPPNP (or GDP) as told for each assay; also called wild-type RHOG; source: E. coli BL21 (DE3) CodonPlus, purified (nickel-nitrilotriacetic acid, thrombin cleavage, Superdex 75)

RHOG D38A mutant = biological target: T2, RHOG D38A mutant (human, UniProt P84095 1-179, D38A); experiment: as above; conditions: both partners purified
T2 construct: RHOG, human, GeneID 391, amino acids 1–179 with D38A; also called RHOG Asp38 to Ala mutant; source: E. coli BL21 (DE3) CodonPlus, purified (nickel-nitrilotriacetic acid, thrombin cleavage, Superdex 75)

[2] = biological target: the molecule itself; experiment: SEC; co-expressed and co-purified DOCK2–ELMO1 complex, wild type and dimer mutant; gel filtration buffer 50 mM Tris HCl (pH 8.0), 200 mM NaCl, 2 mM DTT; Superose 6 / Superdex 200 5/150GL

T1 sequence (P84095 1-179): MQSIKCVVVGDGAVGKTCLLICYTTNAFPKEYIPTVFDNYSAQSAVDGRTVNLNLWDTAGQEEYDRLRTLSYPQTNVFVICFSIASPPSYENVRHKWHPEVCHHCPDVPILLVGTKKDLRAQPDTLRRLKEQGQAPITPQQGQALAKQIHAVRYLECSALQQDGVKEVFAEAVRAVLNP
T2 sequence (P84095 1-179 D38A): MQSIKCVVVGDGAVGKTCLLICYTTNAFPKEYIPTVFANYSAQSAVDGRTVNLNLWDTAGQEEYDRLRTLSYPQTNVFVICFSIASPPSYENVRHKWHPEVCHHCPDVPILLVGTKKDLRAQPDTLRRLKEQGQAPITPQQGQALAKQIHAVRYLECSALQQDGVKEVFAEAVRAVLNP

B1: N-terminal RBD domain of murine ELMO2 (amino acids 1–80) (domain or fragment, UniProt Q8BHL5 1-80, looked up)
chain: MPPPSDIVKVAIEWPGANAQLLEIDQKRPLASIIKEVCDGWSLPNPEYYTLRYADGPQLYVTEQTRNDIKNGTILQLAVS
notes: also called ELMO2^RBD; wild-type ELMO2^RBD; source: E. coli BL21 (DE3) CodonPlus, purified (GSH resin, thrombin cleavage on the resin, Superdex 75); not shown: GST, N-terminal, cleaved
Kd [1]: 7.8 µM | Kd (RHOG D38A mutant): 9 µM

B2: human DOCK2 (dedicator of cytokinesis 2) (natural protein)
chain: not shown
notes: DOCK2, human; Tag removed with TEV protease; samples for cryo-EM were cross-linked with glutaraldehyde; also called DOCK2^WT; source: High Five insect cells (baculovirus), co-expressed with ELMO1, purified (Strep-Tactin, Resource Q, Superose 6); not shown: double StrepII, C-terminal, cleaved
stoichiometry N [2]: 2
